{"source": "patent US20260109776A1", "about": "(Amgen, published 2026)", "target": "human CD40 on cells (human, UniProt P25942 21-277)", "assay": "cell-based or functional assay", "data": [{"binder": "soluble human CD40L (ligand, UniProt P29965 113-261, looked up, fluorescent label in the ligand binding assay of Table 7) MQKGDQNPQIAAHVISEASSKTTSVLQWAEKGYYTMSNNLVTLENGKQLTVKRQGLYYIYAQVTFCSNREASSQAPFIASLCLKSPGRFERILLRAANTHSSAKPCGQQSIHLGGVFELQPGASVFVNVTDPSQVSHGTGFTSFGLLKL", "values": [{"measurement": "CD40L EC50, human B cell proliferation, no antibody", "result": 1.08, "unit": "ng/mL"}, {"measurement": "CD40L EC50, human B cell proliferation, with 1 ug/ml 4G7", "result": 1.04, "unit": "ng/mL"}, {"measurement": "CD40L EC50, human B cell proliferation, with 1 ug/ml 29H10", "result": 0.715, "unit": "ng/mL"}, {"measurement": "CD40L EC50, human B cell proliferation, with 1 ug/ml 30A12", "result": 0.81, "unit": "ng/mL"}, {"measurement": "CD40L EC50, human B cell proliferation, with 1 ug/ml 33H6", "result": 1.14, "unit": "ng/mL"}, {"measurement": "CD40L EC50, human B cell proliferation, with 1 ug/ml 35F11", "result": 6.66, "unit": "ng/mL"}, {"measurement": "CD40L EC50, human B cell proliferation, with 1 ug/ml 36F3", "result": 13, "unit": "ng/mL"}, {"measurement": "CD40L EC50, human B cell proliferation, with 1 ug/ml 37A6", "result": 1.39, "unit": "ng/mL"}, {"measurement": "CD40L EC50, human B cell proliferation, with 1 ug/ml 39C2", "result": 0.985, "unit": "ng/mL"}]}]}
